We go through 5 molecules from patent US20120172295A1.

Non-standard residues stand in square brackets, D forms with d. No end group written: not given here. *: point of attachment. Palmitoyl = CCCCCCCCCCCCCCCC(=O)*; Myristoyl = CCCCCCCCCCCCCC(=O)*; Aib = CC(C)(N)C(=O)O

What all share (assay): cell-based or functional assay
One test has as its target T1, GIP receptor, P48546.
T1 chain: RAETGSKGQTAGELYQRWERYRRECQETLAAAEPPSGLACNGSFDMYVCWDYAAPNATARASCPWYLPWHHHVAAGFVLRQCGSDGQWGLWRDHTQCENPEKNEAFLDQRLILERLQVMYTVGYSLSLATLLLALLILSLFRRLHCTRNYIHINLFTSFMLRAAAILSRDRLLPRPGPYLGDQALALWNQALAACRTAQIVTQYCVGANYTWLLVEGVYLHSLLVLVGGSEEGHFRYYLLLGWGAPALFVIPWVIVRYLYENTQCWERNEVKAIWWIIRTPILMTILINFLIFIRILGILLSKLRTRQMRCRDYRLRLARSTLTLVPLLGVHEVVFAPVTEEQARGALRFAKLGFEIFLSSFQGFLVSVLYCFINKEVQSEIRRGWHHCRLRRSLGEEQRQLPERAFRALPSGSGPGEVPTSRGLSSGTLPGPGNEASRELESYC

In test [1] the target is glucagon receptor, P47871.
Sequence of glucagon receptor, P47871 (P47871 26-477 limits assumed): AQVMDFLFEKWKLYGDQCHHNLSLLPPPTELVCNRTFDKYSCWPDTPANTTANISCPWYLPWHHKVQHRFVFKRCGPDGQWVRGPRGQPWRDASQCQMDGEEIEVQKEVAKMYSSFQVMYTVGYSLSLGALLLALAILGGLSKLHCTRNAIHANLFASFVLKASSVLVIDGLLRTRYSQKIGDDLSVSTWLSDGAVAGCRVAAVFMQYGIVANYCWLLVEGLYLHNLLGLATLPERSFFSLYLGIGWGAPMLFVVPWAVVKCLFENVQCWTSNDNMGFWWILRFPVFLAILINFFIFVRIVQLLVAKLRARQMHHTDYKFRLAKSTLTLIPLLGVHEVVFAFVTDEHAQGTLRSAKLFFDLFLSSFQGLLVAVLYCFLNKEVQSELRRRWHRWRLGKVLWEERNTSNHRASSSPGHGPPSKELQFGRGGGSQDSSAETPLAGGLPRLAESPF
The next test addresses T2, GLP-1 receptor, P43220.
T2 chain: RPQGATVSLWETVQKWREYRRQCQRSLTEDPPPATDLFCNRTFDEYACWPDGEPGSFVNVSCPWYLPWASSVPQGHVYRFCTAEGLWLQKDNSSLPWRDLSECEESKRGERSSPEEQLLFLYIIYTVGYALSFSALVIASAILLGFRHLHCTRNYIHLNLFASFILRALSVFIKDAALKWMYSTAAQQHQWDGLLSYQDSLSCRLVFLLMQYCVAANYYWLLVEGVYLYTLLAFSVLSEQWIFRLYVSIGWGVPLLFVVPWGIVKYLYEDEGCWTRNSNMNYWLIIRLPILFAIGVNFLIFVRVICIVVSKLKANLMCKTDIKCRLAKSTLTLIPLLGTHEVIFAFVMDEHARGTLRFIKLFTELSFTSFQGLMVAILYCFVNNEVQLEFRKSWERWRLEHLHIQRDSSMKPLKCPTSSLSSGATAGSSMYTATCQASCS

B1: mt-361 (peptide)
peptide: H[Aib]QGTFTSDYSIYLD[Aib]QAAKEFVNWLMNGGPSSGAPPPSK-NH2
modifications: N-terminus assumed
SMILES: CC[C@H](C)[C@H](NC(=O)[C@H](CO)NC(=O)[C@H](Cc1ccc(O)cc1)NC(=O)[C@H](CC(=O)O)NC(=O)[C@H](CO)NC(=O)[C@@H](NC(=O)[C@H](Cc1ccccc1)NC(=O)[C@@H](NC(=O)CNC(=O)[C@H](CCC(N)=O)NC(=O)C(C)(C)NC(=O)[C@@H](N)Cc1c[nH]cn1)[C@@H](C)O)[C@@H](C)O)C(=O)N[C@@H](Cc1ccc(O)cc1)C(=O)N[C@@H](CC(C)C)C(=O)N[C@@H](CC(=O)O)C(=O)NC(C)(C)C(=O)N[C@@H](CCC(N)=O)C(=O)N[C@@H](C)C(=O)N[C@@H](C)C(=O)N[C@@H](CCCCN)C(=O)N[C@@H](CCC(=O)O)C(=O)N[C@@H](Cc1ccccc1)C(=O)N[C@H](C(=O)N[C@@H](CC(N)=O)C(=O)N[C@@H](Cc1c[nH]c2ccccc12)C(=O)N[C@@H](CC(C)C)C(=O)N[C@@H](CCSC)C(=O)N[C@@H](CC(N)=O)C(=O)NCC(=O)NCC(=O)N1CCC[C@H]1C(=O)N[C@@H](CO)C(=O)N[C@@H](CO)C(=O)NCC(=O)N[C@@H](C)C(=O)N1CCC[C@H]1C(=O)N1CCC[C@H]1C(=O)N1CCC[C@H]1C(=O)N[C@@H](CO)C(=O)N[C@@H](CCCCN)C(N)=O)C(C)C
As for B1, the % relative activity in the test with GIP receptor, P48546 was 0.29%; in test [1], 3.61%; with GLP-1 receptor, P43220, 226%. Besides, the half-maximal effective concentration (EC50) is 1.05 nM with GIP receptor, P48546; 1.77 nM in test [1]; 0.0109 nM with GLP-1 receptor, P43220.

B2: mt-346 (peptide)
peptide: H[Aib]QGTFTSDYSKYLDEQAAKEFICWLMNGGPSSGAPPPSK-NH2
modifications: N-terminus assumed
SMILES: CC[C@H](C)[C@H](NC(=O)[C@H](Cc1ccccc1)NC(=O)[C@H](CCC(=O)O)NC(=O)[C@H](CCCCN)NC(=O)[C@H](C)NC(=O)[C@H](C)NC(=O)[C@H](CCC(N)=O)NC(=O)[C@H](CCC(=O)O)NC(=O)[C@H](CC(=O)O)NC(=O)[C@H](CC(C)C)NC(=O)[C@H](Cc1ccc(O)cc1)NC(=O)[C@H](CCCCN)NC(=O)[C@H](CO)NC(=O)[C@H](Cc1ccc(O)cc1)NC(=O)[C@H](CC(=O)O)NC(=O)[C@H](CO)NC(=O)[C@@H](NC(=O)[C@H](Cc1ccccc1)NC(=O)[C@@H](NC(=O)CNC(=O)[C@H](CCC(N)=O)NC(=O)C(C)(C)NC(=O)[C@@H](N)Cc1c[nH]cn1)[C@@H](C)O)[C@@H](C)O)C(=O)N[C@@H](CS)C(=O)N[C@@H](Cc1c[nH]c2ccccc12)C(=O)N[C@@H](CC(C)C)C(=O)N[C@@H](CCSC)C(=O)N[C@@H](CC(N)=O)C(=O)NCC(=O)NCC(=O)N1CCC[C@H]1C(=O)N[C@@H](CO)C(=O)N[C@@H](CO)C(=O)NCC(=O)N[C@@H](C)C(=O)N1CCC[C@H]1C(=O)N1CCC[C@H]1C(=O)N1CCC[C@H]1C(=O)N[C@@H](CO)C(=O)N[C@@H](CCCCN)C(N)=O
For B2, the % relative activity stood at 0.34% in the test with GIP receptor, P48546; 3.7% in test [1]; 367% in the test with GLP-1 receptor, P43220. The EC50 turned out to be 0.796 nM with GIP receptor, P48546; 0.954 nM in test [1]; 0.0015 nM with GLP-1 receptor, P43220.

As to H[Aib]QGTFTSDYSKYLDEQAAKEFIC(PEG 40 kDa)WLMNGGPSSGAPPPSK(Myristoyl)-NH2 [mt-349], the % relative activity in the test with GIP receptor, P48546 amounted to 0.18%; in test [1], 3.82%; in the test with GLP-1 receptor, P43220, 286%. Further, the 50% effective concentration (EC50) was determined as 1.99 nM with GIP receptor, P48546; 0.549 nM in test [1]; 0.0022 nM with GLP-1 receptor, P43220.

B3: mt-362 (peptide)
peptide: H[Aib]QGTFTSDYSIYLD[Aib]QAAKEFVNWLMNGGPSSGAPPPSK(Palmitoyl)-NH2
modifications: N-terminus assumed
SMILES: CCCCCCCCCCCCCCCC(=O)NCCCC[C@H](NC(=O)[C@H](CO)NC(=O)[C@@H]1CCCN1C(=O)[C@@H]1CCCN1C(=O)[C@@H]1CCCN1C(=O)[C@H](C)NC(=O)CNC(=O)[C@H](CO)NC(=O)[C@H](CO)NC(=O)[C@@H]1CCCN1C(=O)CNC(=O)CNC(=O)[C@H](CC(N)=O)NC(=O)[C@H](CCSC)NC(=O)[C@H](CC(C)C)NC(=O)[C@H](Cc1c[nH]c2ccccc12)NC(=O)[C@H](CC(N)=O)NC(=O)[C@@H](NC(=O)[C@H](Cc1ccccc1)NC(=O)[C@H](CCC(=O)O)NC(=O)[C@H](CCCCN)NC(=O)[C@H](C)NC(=O)[C@H](C)NC(=O)[C@H](CCC(N)=O)NC(=O)C(C)(C)NC(=O)[C@H](CC(=O)O)NC(=O)[C@H](CC(C)C)NC(=O)[C@H](Cc1ccc(O)cc1)NC(=O)[C@@H](NC(=O)[C@H](CO)NC(=O)[C@H](Cc1ccc(O)cc1)NC(=O)[C@H](CC(=O)O)NC(=O)[C@H](CO)NC(=O)[C@@H](NC(=O)[C@H](Cc1ccccc1)NC(=O)[C@@H](NC(=O)CNC(=O)[C@H](CCC(N)=O)NC(=O)C(C)(C)NC(=O)[C@@H](N)Cc1c[nH]cn1)[C@@H](C)O)[C@@H](C)O)[C@@H](C)CC)C(C)C)C(N)=O
For B3, the % relative activity is 3.95% in the test with GIP receptor, P48546; 83.2% in test [1]; 241% with GLP-1 receptor, P43220. For the same molecule, the EC50 with GIP receptor, P48546 turned out to be 0.0782 nM; in test [1], 0.0768 nM; with GLP-1 receptor, P43220, 0.102 nM.

B4: mt-363 (peptide)
peptide: H[Aib]QGTFTSDYSKYLDEQAAKEFIAWLMNGGPSSGAPPPSK-NH2
modifications: N-terminus assumed
SMILES: CC[C@H](C)[C@H](NC(=O)[C@H](Cc1ccccc1)NC(=O)[C@H](CCC(=O)O)NC(=O)[C@H](CCCCN)NC(=O)[C@H](C)NC(=O)[C@H](C)NC(=O)[C@H](CCC(N)=O)NC(=O)[C@H](CCC(=O)O)NC(=O)[C@H](CC(=O)O)NC(=O)[C@H](CC(C)C)NC(=O)[C@H](Cc1ccc(O)cc1)NC(=O)[C@H](CCCCN)NC(=O)[C@H](CO)NC(=O)[C@H](Cc1ccc(O)cc1)NC(=O)[C@H](CC(=O)O)NC(=O)[C@H](CO)NC(=O)[C@@H](NC(=O)[C@H](Cc1ccccc1)NC(=O)[C@@H](NC(=O)CNC(=O)[C@H](CCC(N)=O)NC(=O)C(C)(C)NC(=O)[C@@H](N)Cc1c[nH]cn1)[C@@H](C)O)[C@@H](C)O)C(=O)N[C@@H](C)C(=O)N[C@@H](Cc1c[nH]c2ccccc12)C(=O)N[C@@H](CC(C)C)C(=O)N[C@@H](CCSC)C(=O)N[C@@H](CC(N)=O)C(=O)NCC(=O)NCC(=O)N1CCC[C@H]1C(=O)N[C@@H](CO)C(=O)N[C@@H](CO)C(=O)NCC(=O)N[C@@H](C)C(=O)N1CCC[C@H]1C(=O)N1CCC[C@H]1C(=O)N1CCC[C@H]1C(=O)N[C@@H](CO)C(=O)N[C@@H](CCCCN)C(N)=O
Regarding B4, the % relative activity with GIP receptor, P48546 worked out at 0.73%; in test [1], 7.76%; with GLP-1 receptor, P43220, 672%. In addition, the EC50 amounted to 0.425 nM with GIP receptor, P48546; 0.823 nM in test [1]; 0.0037 nM with GLP-1 receptor, P43220.

By EC50 is commonly meant the midpoint of the concentration-response curve. A lower EC50 goes with higher potency in that assay.
